Consider 16 molecules from patent publication US20250171787, “APTAMERS, PHARMACEUTICAL COMPOSITIONS THEREOF, AND METHODS FOR PREVENTING OR TREATING BCMA-ASSOCIATED DISEASES OR CONDITIONS” (Aptapeutics Limited, published 2025).

The term Kd denotes the free concentration of one partner at which half of the binding sites on the other are occupied at equilibrium, for simple one-to-one binding. High values mean weaker binding, low ones tighter binding.

The labels stand for the following.
B1: 10-2 (ssDNA)
DNA: CGTACGGTCGACGCTAGCTGTTGCTGTGCAGGAAGAATGCA
B2: 10-7 (ssDNA)
DNA: CGTACGGTCGACGCTAGCTGTTGCTGTGCAGGAAGAATGCAGATTCCCAACATGGATCCGAGCTCC
B3: 10-6 (ssDNA)
DNA: CGTACGGTCGACGCTAGCTGTTGCTGTGCAGGAAGAATGCAGATTCCCAACATGGATCCGA
B4: 10-5 (ssDNA)
DNA: CGTACGGTCGACGCTAGCTGTTGCTGTGCAGGAAGAATGCAGATTCCCAACATGGA
B5: 10-4 (ssDNA)
DNA: CGTACGGTCGACGCTAGCTGTTGCTGTGCAGGAAGAATGCAGATTCCCAAC
B6: 10-12 (ssDNA)
DNA: TTGCTGTGCAGGAAGAATGCAGATTCCCAACATGGATCCGAGCTCCACGTG
B7: 10-11 (ssDNA)
DNA: AGCTGTTGCTGTGCAGGAAGAATGCAGATTCCCAACATGGATCCGAGCTCCACGTG
B8: 10-10 (ssDNA)
DNA: ACGCTAGCTGTTGCTGTGCAGGAAGAATGCAGATTCCCAACATGGATCCGAGCTCCACGTG
B9: 10-1 (ssDNA)
DNA: CGTACGGTCGACGCTAGCTGTTGCTGTGCAGGAAG
B10: 10-9 (ssDNA)
DNA: GGTCGACGCTAGCTGTTGCTGTGCAGGAAGAATGCAGATTCCCAACATGGATCCGAGCTCCACGTG
B11: modified 10-3 (XNA)
DNA: CGTACGGTCGACGCTAGCTGTTGCTGTGCAGGAAGAATGCAGATTC
modifications: 2'-OMe on all cytosines; 3' inverted dT (terminal t in listing is the inverted dT)
B12: 10-8 (ssDNA)
DNA: TGTTGCTGTGCAGGAAGAATGCAGATTCCCAACAT
B13: Sample 7 (ssDNA)
DNA: CGTACGGTCGACGCTAGCCCATGGGAATGCAGACCGCAGGCTGGCTGTAGGAGGGATCCGAGCTCCACGTG
B14: Sample 1 (ssDNA)
DNA: CGTACGGTCGACGCTAGCAAGTATAGACGTGATGCAGGGAATGCAGACCCAGGGGATCCGAGCTCCACGTG
B15: Sample 10 (ssDNA)
DNA: CGTACGGTCGACGCTAGCTGTTGCTGTGCAGGAAGAATGCAGATTCCCAACATGGATCCGAGCTCCACGTG
B16: 10-3 (ssDNA)
DNA: B11 DNA

T1 sequence (Q02223 1-54, one chain of several): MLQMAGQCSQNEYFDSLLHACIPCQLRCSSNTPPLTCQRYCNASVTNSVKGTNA

One data set deals with T1, BCMA (TNFRSF17) (Homo sapiens, UniProt Q02223 Q02223:1-54). Nature of the data set: ELONA. Conditions: tags: His-tag; label: 5'-biotin. The procedure:
(§1) ELONA was used to evaluate the binding affinity of the aptamers. 500 ng of His-tagged recombinant BCMA was used to coat each well of a 96-well microtiter plate via overnight incubation at 4° C. 1 hour of BSA blocking at room temperature was used to cover non-binding sites and was followed by 4 washes with DNA binding buffer for 5 minutes. Varying concentrations of each aptamer was added into each well for 45-minute incubation with gentle shaking. The wells were then washed with wash buffer 4 times, 5 minutes each. 100 μl of streptavidin-HRP (1:10000 in PBST+0.1% BSA) was added into each well for 30-minute incubation. 4 washes with binding buffer were then performed. 50 μl of TMB was added to each well for a 20-minute incubation. 50 μl of 2M H₂SO₄ was used to stop the reaction, followed by measurement of 450 nm absorbance.
(§2) Their binding affinity was evaluated via ELONA. Binding curves were plotted, followed by calculation of the binding affinity.
Take B1: binding was characterised by a dissociation constant (Kd) of 240 nM. This lies in the sub-micromolar range.
B2 came in with a Kd of 65 nM.
B3 returned an equilibrium dissociation constant (Kd) of 364 nM.
Molecule B4 returned a Kd of 579 nM.
B5 yielded an equilibrium dissociation constant (Kd) of 130 nM.
The same measure, in the same setting: to B6 belongs 542 nM; to B7, 1590 nM.
For B8, the affinity, expressed as Kd, was 1550 nM.
Same read-out and setting: the result for B9 reads 1290 nM; that for B10, 451 nM.

For another data set, the target named is T1, BCMA (TNFRSF17). Description: ELONA. The settings on record: tags: His-tag.
With B11, the Kd was around 64.2 nM.

The target in a further data set is T1, BCMA (TNFRSF17). Nature of the data set: ELONA; random region only. Conditions: tags: His-tag; label: 5'-biotin. The procedure:
as §1, §2
Regarding B12, the equilibrium dissociation constant (Kd) amounted to 184 nM.

The next data set has as its target T1, BCMA (TNFRSF17). Nature of the data set: ELONA; Kd determined but value only in FIG. 2. Conditions: tags: His-tag; label: 5'-biotin.
Regarding B13, the binding result is “binds”.
Still for that read-out and setting: to B14 belongs “binds”; to B15, “binds”.

For a further data set, the target named is T1, BCMA (TNFRSF17). Description: ELONA; best of the truncations. Conditions: tags: His-tag; label: 5'-biotin. The procedure:
as §1, §2
Turning to B16, the equilibrium dissociation constant (Kd) was 59 nM. This counts as double-digit nanomolar.
